Reference: patent US20040175804A1, “Process for preparing dideoxyinosine using adenosine deaminase enzyme” (priority 2003, published 2004)

Experiments:
[1] = ADA activity assay (1 U = 1 μmol of ddA deaminated/min at 37° C.); type: biochemical; settings: 1 unit = 1 μmol of ddA deaminated/min at 37° C.; on IPS-400 support
Experimental: The enzyme so derived should be assayed for activity. As used herein, a unit (U) of enzymatic activity is that amount of enzyme which will deaminate 1 μmol of ddA per minute at 37° C. Desirably, the final enzyme titer is from about 650-750 U/ml. The assay may be performed by adding enzyme to a 2.4% solution of ddA at 37° C. The reaction is allowed to proceed for 15 min while gently stirring. Tetrahydrofuran is added to stop the reaction. A sample is taken and run on HPLC to determine the amount of ddI formed.
The immobilized enzyme assays show an enzymatic activity of ˜100 U/g. (1 unit=1 μmol of ddA deaminated/min at 37° C.).

[2] = Conversion of a 52-60 g/L solution of ddA in water to ddI by adenosine deaminase; type: biochemical; settings: for Conversion of ddA to ddI: 40 U/g ddA, 52-60 g/L ddA in water
Experimental: 100.0 g ddA is added to 1900 ml of water at 30° C. (mother liquor from previous runs can also be used). After the ddA has been added (complete dissolution is not necessary), 4000 U of immobilized rec human adenosine deaminase is added. […] The reaction is complete (approximately 5-8 hours) when the level of residual ddA is less than or equal to 1% of the original amount of ddA added. The enzyme solids are removed by filtration (20-30 μm media) and the enzyme cake is washed with 100 ml water. The used enzyme is held as a wet cake at 0-5° C. (for up to 72 hours) and can be recycled to another batch.
Microbial ADA from recombinant E. coli was partially purified and isolated as an ammonium sulfate suspension. E. coli fermentation broth (42 U ADA/mL, 2 L) was centrifuged and the cell pellet was collected and washed with 1 L 100 mM phosphate buffer pH 7.5. The cells were again centrifuged and resuspended in 2 L of the above buffer plus 20% glycerol. The cells were passed once through a microfluidizer. Cell debris was removed by centrifugation and the resulting supernatant was concentrated by ultrafiltration through a 30,000 MWCO cassette. The enzyme was concentrated to a final titer of 390 U/ml. Ammonium sulfate was added to a 50% saturation, the resulting precipitate was collected by centrifugation and re-suspended in 100 ml deionized water. The final titer of the slurry was 740 U/ml; the protein content of the slurry was ˜75 mg/ml.

B1: Recombinant human immobilized ADA: Human adenosine deaminase (SEQ ID NO: 1) expressed in E. coli, immobilized on glutaraldehyde-activated IPS-400 support (protein, listed as Homo sapiens)
chain: MAQTPAFDKPKVELHVHLDGSIKPETILYYGRRRGIALPANTAEGLLNVIGMDKPLTLPDFLAKFDYYMPAIAGCREAIKRIAYEFVEMKAKEGVVYVEVRYSPHLLANSKVEPIPWNQAEGDLTPDEVVALVGQGLQEGERDFGVKARSILCCMRHQPNWSPKVVELCKKYQQQTVVAIDLAGDETIPGSSLLPGHVQAYQEAVKSGIHRTVHAGEVGSAEVVKEAVDILKTERLGHGYHTLEDQALYNRLRQENMHFEICPWSSYLTGAWKPDTEHAVIRLKNDQANYSLNTDDPLIFKSTLDTDYQMTKRDMGFTEEEFKRLNINAAKSSFLPEDEKRELLDLLYKAYGMPPSASAGQNL
modifications: immobilized on glutaraldehyde-activated IPS-400 support; (1)..(363) gi 14043373
With B1 the “Enzymatic activity of immobilized enzyme” value [1] was ~100 U/g, the “Conversion of ddA to ddI” value ([2]; 30 °C, 4.5 hours) was 100% and the “Conversion of ddA to ddI” value ([2]; 40 °C, 1.5 hours) was 100%. The “Stability of the enzyme in the ddA to ddI reaction” value ([2]; compared with microbial enzymes) was “significantly more stable than microbial enzymes”.
